The results in this text go back to publication PMC5472279, “Genetic, structural, and chemical insights into the dual function of GRASP55 in germ cell Golgi remodeling and JAM-C polarized localization during spermatogenesis” (PLoS Genetics, 2017).

Ends that are not written are not given here. * marks the point of attachment. Biotin = O=C1N[C@H]2[C@H](CS[C@H]2CCCCC(=O)*)N1

Common to all, as to details: both partners purified
Experiment [1] addresses T1, GST-GRASP55 FL (mGRASP55 Full-length, aa 2-451) (mouse, UniProt Q99JX3 2-451).
T1 construct: GRASP55, mouse, aa 2-451, called full-length (FL); Forward primers with and without a thrombin cleavage site were used; also called full-length GRASP55 protein; source: E. coli BL21 (DE3), purified (Glutathione sepharose 4B); not shown: GST, N-terminal, kept
Put plainly: AlphaScreen or HTRF + ITC; the text names HTRF or ITC for the values without telling which; GST-GRASP55 FL with JAM peptides; HTRF: biotinylated peptide competed with unlabeled peptide, 0.05 M HEPES, 0.15 M NaCl, 0.25% BSA pH 7.3, 18 h, 4°C; ITC: peptide in the syringe, protein in the cell, 100 mM NaPO4 pH 7.5, 25°C.

Experiment [2] addresses T1, GST-GRASP55 FL (mGRASP55 Full-length, …). The experiment is described as follows: AlphaScreen or HTRF; GST fusion protein, anti-GST antibody coupled to terbium cryptate (1 nM), streptavidin-d2 (1.25 nM), biotinylated peptide (6 nM), competed with non-biotinylated peptide or the compound Graspin; 0.05 M HEPES, 0.15 M NaCl, 0.25% BSA pH 7.3, 18 h, 4°C.
The target of experiment [3] is GRASP55 PDZ12, untagged PDZ tandem of GRASP55 (mouse, UniProt Q99JX3 2-208). Put plainly: ITC; GRASP55 protein in the cell (70-150 uM), JAM peptide in the syringe (800-2250 uM); 298 K (25 °C); 100 mM NaPO4 buffer pH 7.5; MicroCal ITC200; one-site fit.
The target of experiment [4] is T2, GST-GRASP55 FL (GST-tagged GRASP55 full-length, aa 2-451) (mouse, UniProt Q99JX3 2-451).
T2 construct: Gateway cloning into pDEST15; also called mGRASP55 Full-length (FL); Golgi reassembly stacking protein of 55 kDa; source: E. coli BL21 (DE3), purified (Glutathione sepharose 4B); not shown: GST, N-terminal, kept
Described as above.

The target in experiment [5] is His-GRASP55 PDZ12 (Histidine-tagged PDZ tandem of GRASP55, aa 2-208) (mouse, UniProt Q99JX3 2-208). Described as above.

B1: JAM-C_P19, peptide corresponding to the C-terminal 19-mer of mouse JAM-C (unlabeled) (peptide)
peptide: NYIRTSEEGDFRHKSSFVI
notes: JAM-C, mouse, C-terminal 19-mer; the homologous non-biotinylated form of the printed biotinylated peptide; also called JAM-C peptide; source: synthetic peptide
In the case of B1, the dissociation constant (Kd) in experiment [1] is 3.7 µM.

B2: Biotinylated 19-mer peptide of the carboxy-terminal sequence of JAM-C (peptide)
peptide: Biotin-NYIRTSEEGDFRHKSSFVI
notes: JAM-C, mouse, carboxy-terminal 19 amino acids; source: synthetic peptide (Covalab, France)
With B2, the binding result in experiment [2] is “binds”.

B3: Biotinylated 19-mer peptide of the carboxy-terminal sequence of JAM-B (peptide)
peptide: Biotin-SKVTTMSENDFKHTKSFII
notes: JAM-B, mouse, carboxy-terminal 19 amino acids; source: synthetic peptide (Covalab, France)
With B3, in experiment [2], the binding result was “binds”.

B4: Unlabeled (non-biotinylated) JAM-A carboxy-terminal 19-mer peptide (peptide)
peptide: SQPSTRSEGEFKQTSSFLV
notes: JAM-A, carboxy-terminal 19 amino acids; the homologous non-biotinylated form of the printed biotinylated peptide; source: synthetic peptide
B4: the Kd in experiment [1] amounted to 27 µM.

B5: JAM-C peptide, carboxy-terminal 19-mer (JAM-C_P19) (peptide)
peptide: NYIRTSEEGDFRHKSSFVI
notes: Junctional Adhesion Molecule-C (JAM-C), mouse, encoded by Jam3, carboxy-terminal 19 amino acids; source: synthetic peptide (Covalab, France)
With B5, the Kd in experiment [3] worked out at 3.8 ± 0.1 µM; in experiment [5] it was 7.1 ± 0.1 µM. In addition, the “stoichiometry N” value in experiment [3] came to 1.1; in experiment [4], 1; in experiment [5], 1.

B6: JAM-B_P19, peptide corresponding to the C-terminal 19-mer of mouse JAM-B (unlabeled) (peptide)
peptide: SKVTTMSENDFKHTKSFII
notes: JAM-B, mouse, C-terminal 19-mer; the homologous non-biotinylated form of the printed biotinylated peptide; also called JAM-B peptide; source: synthetic peptide
On to B6, for which the Kd in experiment [1] worked out at 4.9 µM.

B7: JAM-B peptide, carboxy-terminal 19-mer (JAM-B_P19) (peptide)
peptide: SKVTTMSENDFKHTKSFII
notes: Junctional Adhesion Molecule-B (JAM-B), mouse, carboxy-terminal 19 amino acids; source: synthetic peptide (Covalab, France)
Consider B7, for which the “stoichiometry N” value in experiment [4] worked out at 0.9. In addition, in experiment [5], binding was put at a Kd of 1.2 ± 0.1 µM and the “stoichiometry N” value was determined as 1.3.

B8: JAM-A peptide, carboxy-terminal 19-mer (peptide)
peptide: SQPSTRSEGEFKQTSSFLV
notes: Junctional Adhesion Molecule-A (JAM-A), carboxy-terminal 19 amino acids; source: synthetic peptide (Covalab, France)
In the case of B8, the “stoichiometry N” value in experiment [4] came to 0.8. In experiment [5], the Kd is 14 ± 1 µM and the “stoichiometry N” value is 0.9.

B9: Biotinylated 19-mer peptide of the carboxy-terminal sequence of JAM-A (peptide)
peptide: Biotin-SQPSTRSEGEFKQTSSFLV
notes: JAM-A, carboxy-terminal 19 amino acids; source: synthetic peptide (Covalab, France)
As for B9, the binding result in experiment [2] is “binds”.
